This is an account of results in PMC10786891, “Massively parallel profiling of RNA-targeting CRISPR-Cas13d”.

To fix the notation:
T1: EsCas13d, nuclease-dead (Eubacterium siraeum, UniProt B0MS50, R295A;H300A;R849A;H854A)
T1 sequence: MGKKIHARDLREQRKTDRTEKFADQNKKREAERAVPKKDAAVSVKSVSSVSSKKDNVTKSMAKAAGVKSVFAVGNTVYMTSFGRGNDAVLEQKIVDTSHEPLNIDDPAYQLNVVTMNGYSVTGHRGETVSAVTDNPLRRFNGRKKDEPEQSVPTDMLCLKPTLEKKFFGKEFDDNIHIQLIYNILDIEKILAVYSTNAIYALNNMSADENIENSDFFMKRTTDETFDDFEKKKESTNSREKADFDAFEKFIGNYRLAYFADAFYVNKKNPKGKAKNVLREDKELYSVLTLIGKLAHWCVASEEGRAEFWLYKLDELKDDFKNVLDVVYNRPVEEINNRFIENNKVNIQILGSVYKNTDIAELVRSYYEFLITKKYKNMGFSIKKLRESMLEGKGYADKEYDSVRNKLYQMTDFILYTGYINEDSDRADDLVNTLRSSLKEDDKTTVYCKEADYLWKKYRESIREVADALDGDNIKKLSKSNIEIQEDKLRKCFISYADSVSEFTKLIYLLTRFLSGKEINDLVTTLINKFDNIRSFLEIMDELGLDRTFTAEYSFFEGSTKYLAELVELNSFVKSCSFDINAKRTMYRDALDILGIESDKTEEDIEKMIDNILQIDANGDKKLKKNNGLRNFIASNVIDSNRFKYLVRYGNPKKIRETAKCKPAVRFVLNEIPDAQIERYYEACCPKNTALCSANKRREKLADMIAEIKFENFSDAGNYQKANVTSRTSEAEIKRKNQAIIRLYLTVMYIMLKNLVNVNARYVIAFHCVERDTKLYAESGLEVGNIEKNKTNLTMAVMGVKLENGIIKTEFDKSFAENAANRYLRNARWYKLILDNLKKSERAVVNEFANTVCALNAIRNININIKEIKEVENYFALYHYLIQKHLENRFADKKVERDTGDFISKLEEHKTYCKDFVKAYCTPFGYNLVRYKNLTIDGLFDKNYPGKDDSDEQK

B1: target 1 insG 3' of 1,insC 3' of 1 (mixed)
RNA 1: CACCCGUGCAAAAAUGCAGGGGUCUAAAACUGAGCGGAUAACCUCUCUAUGG
RNA 2: GGGAAUGGAUCCACAUCUACGAAUUCGUACCAUAGAGAGGUUAUCCGCUCAGCCCGAGAUCGGAAGAGCACACGU
B2: target 1 insG 3' of 22,insU 3' of 12 (mixed)
RNA 1: CACCCGUGCAAAAAUGCAGGGGUCUAAAACUGAGCGGAUAACCUCUCUAUGG
RNA 2: GGGAAUGGAUCCACAUCUACGAAUUCGUACGCAUAGAGAGGUUUAUCCGCUCACCGAGAUCGGAAGAGCACACGU
B3: target 2 MT 5'PFS UCG 3'PFS CAG (mixed)
RNA 1: CACCCGUGCAAAAUUGCAGGGGUCUAAAACCUUCUCCAAAUUGUUUCAUCCU
RNA 2: GGGAAUGGAUCCACAUCUACGAAUUCUCGAGGAUGAAACAAUUUGGAGAAGCAGAGAUCGGAAGAGCACACGU
B4: target 2 MT 5'PFS UAU 3'PFS CUG (mixed)
RNA 1: CACCCGUGCAAAAUUGCAGGGGUCUAAAACCUUCUCCAAAUUGUUUCAUCCU
RNA 2: GGGAAUGGAUCCACAUCUACGAAUUCUAUAGGAUGAAACAAUUUGGAGAAGCUGAGAUCGGAAGAGCACACGU
B5: target 2 MT 5'PFS GUA 3'PFS CGA (mixed)
RNA 1: CACCCGUGCAAAAUUGCAGGGGUCUAAAACCUUCUCCAAAUUGUUUCAUCCU
RNA 2: GGGAAUGGAUCCACAUCUACGAAUUCGUAAGGAUGAAACAAUUUGGAGAAGCGAAGAUCGGAAGAGCACACGU
B6: target 2 MT 5'PFS UAU 3'PFS CUU (mixed)
RNA 1: CACCCGUGCAAAAUUGCAGGGGUCUAAAACCUUCUCCAAAUUGUUUCAUCCU
RNA 2: GGGAAUGGAUCCACAUCUACGAAUUCUAUAGGAUGAAACAAUUUGGAGAAGCUUAGAUCGGAAGAGCACACGU
B7: target 2 MT 5'PFS GUU 3'PFS CAA (mixed)
RNA 1: CACCCGUGCAAAAUUGCAGGGGUCUAAAACCUUCUCCAAAUUGUUUCAUCCU
RNA 2: GGGAAUGGAUCCACAUCUACGAAUUCGUUAGGAUGAAACAAUUUGGAGAAGCAAAGAUCGGAAGAGCACACGU
B8: target 2 MT 5'PFS UCA 3'PFS AUC (mixed)
RNA 1: CACCCGUGCAAAAUUGCAGGGGUCUAAAACCUUCUCCAAAUUGUUUCAUCCU
RNA 2: GGGAAUGGAUCCACAUCUACGAAUUCUCAAGGAUGAAACAAUUUGGAGAAGAUCAGAUCGGAAGAGCACACGU
B9: target 2 MT 5'PFS UCA 3'PFS AUA (mixed)
RNA 1: CACCCGUGCAAAAUUGCAGGGGUCUAAAACCUUCUCCAAAUUGUUUCAUCCU
RNA 2: GGGAAUGGAUCCACAUCUACGAAUUCUCAAGGAUGAAACAAUUUGGAGAAGAUAAGAUCGGAAGAGCACACGU
B10: target 2 MT 5'PFS GUA 3'PFS CGC (mixed)
RNA 1: CACCCGUGCAAAAUUGCAGGGGUCUAAAACCUUCUCCAAAUUGUUUCAUCCU
RNA 2: GGGAAUGGAUCCACAUCUACGAAUUCGUAAGGAUGAAACAAUUUGGAGAAGCGCAGAUCGGAAGAGCACACGU
B11: target 2 MT 5'PFS GAU 3'PFS AGC (mixed)
RNA 1: CACCCGUGCAAAAUUGCAGGGGUCUAAAACCUUCUCCAAAUUGUUUCAUCCU
RNA 2: GGGAAUGGAUCCACAUCUACGAAUUCGAUAGGAUGAAACAAUUUGGAGAAGAGCAGAUCGGAAGAGCACACGU
B12: target 2 MT 5'PFS GAU 3'PFS AGA (mixed)
RNA 1: CACCCGUGCAAAAUUGCAGGGGUCUAAAACCUUCUCCAAAUUGUUUCAUCCU
RNA 2: GGGAAUGGAUCCACAUCUACGAAUUCGAUAGGAUGAAACAAUUUGGAGAAGAGAAGAUCGGAAGAGCACACGU
B13: target 2 MT 5'PFS GUU 3'PFS CAG (mixed)
RNA 1: CACCCGUGCAAAAUUGCAGGGGUCUAAAACCUUCUCCAAAUUGUUUCAUCCU
RNA 2: GGGAAUGGAUCCACAUCUACGAAUUCGUUAGGAUGAAACAAUUUGGAGAAGCAGAGAUCGGAAGAGCACACGU
B14: target 2 MT 5'PFS UAU 3'PFS CUA (mixed)
RNA 1: CACCCGUGCAAAAUUGCAGGGGUCUAAAACCUUCUCCAAAUUGUUUCAUCCU
RNA 2: GGGAAUGGAUCCACAUCUACGAAUUCUAUAGGAUGAAACAAUUUGGAGAAGCUAAGAUCGGAAGAGCACACGU
B15: target 2 MT 5'PFS GUC 3'PFS GAC (mixed)
RNA 1: CACCCGUGCAAAAUUGCAGGGGUCUAAAACCUUCUCCAAAUUGUUUCAUCCU
RNA 2: GGGAAUGGAUCCACAUCUACGAAUUCGUCAGGAUGAAACAAUUUGGAGAAGGACAGAUCGGAAGAGCACACGU
B16: target 2 MT 5'PFS AAA 3'PFS AAG (mixed)
RNA 1: CACCCGUGCAAAAUUGCAGGGGUCUAAAACCUUCUCCAAAUUGUUUCAUCCU
RNA 2: GGGAAUGGAUCCACAUCUACGAAUUCAAAAGGAUGAAACAAUUUGGAGAAGAAGAGAUCGGAAGAGCACACGU
B17: target 2 MT 5'PFS GAU 3'PFS AGG (mixed)
RNA 1: CACCCGUGCAAAAUUGCAGGGGUCUAAAACCUUCUCCAAAUUGUUUCAUCCU
RNA 2: GGGAAUGGAUCCACAUCUACGAAUUCGAUAGGAUGAAACAAUUUGGAGAAGAGGAGAUCGGAAGAGCACACGU
B18: target 2 MT 5'PFS GAA 3'PFS CCA (mixed)
RNA 1: CACCCGUGCAAAAUUGCAGGGGUCUAAAACCUUCUCCAAAUUGUUUCAUCCU
RNA 2: GGGAAUGGAUCCACAUCUACGAAUUCGAAAGGAUGAAACAAUUUGGAGAAGCCAAGAUCGGAAGAGCACACGU
B19: target 2 MT 5'PFS UCA 3'PFS AUU (mixed)
RNA 1: CACCCGUGCAAAAUUGCAGGGGUCUAAAACCUUCUCCAAAUUGUUUCAUCCU
RNA 2: GGGAAUGGAUCCACAUCUACGAAUUCUCAAGGAUGAAACAAUUUGGAGAAGAUUAGAUCGGAAGAGCACACGU
B20: target 2 MT 5'PFS GGC 3'PFS UUU (mixed)
RNA 1: CACCCGUGCAAAAUUGCAGGGGUCUAAAACCUUCUCCAAAUUGUUUCAUCCU
RNA 2: GGGAAUGGAUCCACAUCUACGAAUUCGGCAGGAUGAAACAAUUUGGAGAAGUUUAGAUCGGAAGAGCACACGU
B21: target 2 MT 5'PFS GUU 3'PFS CAU (mixed)
RNA 1: CACCCGUGCAAAAUUGCAGGGGUCUAAAACCUUCUCCAAAUUGUUUCAUCCU
RNA 2: GGGAAUGGAUCCACAUCUACGAAUUCGUUAGGAUGAAACAAUUUGGAGAAGCAUAGAUCGGAAGAGCACACGU
B22: target 2 MT 5'PFS GUU 3'PFS CAC (mixed)
RNA 1: CACCCGUGCAAAAUUGCAGGGGUCUAAAACCUUCUCCAAAUUGUUUCAUCCU
RNA 2: GGGAAUGGAUCCACAUCUACGAAUUCGUUAGGAUGAAACAAUUUGGAGAAGCACAGAUCGGAAGAGCACACGU
B23: target 2 MT 5'PFS UAU 3'PFS CUC (mixed)
RNA 1: CACCCGUGCAAAAUUGCAGGGGUCUAAAACCUUCUCCAAAUUGUUUCAUCCU
RNA 2: GGGAAUGGAUCCACAUCUACGAAUUCUAUAGGAUGAAACAAUUUGGAGAAGCUCAGAUCGGAAGAGCACACGU
B24: target 2 MT 5'PFS UCG 3'PFS CAU (mixed)
RNA 1: CACCCGUGCAAAAUUGCAGGGGUCUAAAACCUUCUCCAAAUUGUUUCAUCCU
RNA 2: GGGAAUGGAUCCACAUCUACGAAUUCUCGAGGAUGAAACAAUUUGGAGAAGCAUAGAUCGGAAGAGCACACGU
B25: target 2 MT 5'PFS UCA 3'PFS AUG (mixed)
RNA 1: CACCCGUGCAAAAUUGCAGGGGUCUAAAACCUUCUCCAAAUUGUUUCAUCCU
RNA 2: GGGAAUGGAUCCACAUCUACGAAUUCUCAAGGAUGAAACAAUUUGGAGAAGAUGAGAUCGGAAGAGCACACGU
B26: target 2 MT 5'PFS UGU 3'PFS CCG (mixed)
RNA 1: CACCCGUGCAAAAUUGCAGGGGUCUAAAACCUUCUCCAAAUUGUUUCAUCCU
RNA 2: GGGAAUGGAUCCACAUCUACGAAUUCUGUAGGAUGAAACAAUUUGGAGAAGCCGAGAUCGGAAGAGCACACGU
B27: target 2 MT 5'PFS GCC 3'PFS AAU (mixed)
RNA 1: CACCCGUGCAAAAUUGCAGGGGUCUAAAACCUUCUCCAAAUUGUUUCAUCCU
RNA 2: GGGAAUGGAUCCACAUCUACGAAUUCGCCAGGAUGAAACAAUUUGGAGAAGAAUAGAUCGGAAGAGCACACGU

The series concerns the target T1, EsCas13d, nuclease-dead. Put plainly: crRNA (strand 1, pre-loaded); Mg2+; 40 mM Tris-HCl pH 7.5, 150 mM NaCl, 6 mM MgCl2, 1 mM DTT, 0.1% Tween-20, 0.2 mg/ml BSA; 25 C; 10 min per concentration, then washed. Conditions: tags: His6-TwinStrep-SUMO cleaved; N-terminal SNAP kept (SNAP-Surface 488); label: 3' end held by stalled T7 RNA polymerase.
In the case of B1, the Kd stood at 11 ± 1.4 nM. Take B2: the Kd was determined as 20.5 ± 1.8 nM.

The molecule B3 had a Kd of 18.7 ± 2.6 nM.

Take B4: the Kd turned out to be 17.4 ± 1.9 nM.

In turn, B5 registered a Kd of 6.4 ± 0.5 nM. B6: the Kd was found to be 54 ± 14 nM. To B7 belongs 6.6 ± 0.7 nM; to B8, 3.6 ± 0.6 nM. B9 returned a Kd of 6.2 ± 2 nM. In the case of B10, the Kd is 7.4 ± 0.5 nM. Regarding B11, the Kd was 7.1 ± 0.6 nM.

Consider B12, for which the affinity, expressed as Kd, was 8 ± 1.1 nM. For the molecule B13, the Kd is 10.9 ± 0.9 nM. With B14 the figure was 22.7 ± 2.8 nM.

For B15, the Kd amounted to 12.2 ± 2.8 nM. B16 gave a dissociation constant Kd of 4 ± 0.5 nM.

Turning to B17, the Kd turned out to be 10.4 ± 1 nM.

With B18, binding was characterised by a dissociation constant (Kd) of 25 ± 6 nM.

For the molecule B19, binding was put at a Kd of 4.4 ± 0.5 nM. To B20 belongs 27 ± 5 nM; to B21, 14.2 ± 1.9 nM.

Turning to B22, the Kd is 15.3 ± 2.3 nM. Molecule B23 had a Kd of 38 ± 7 nM. With B24 the figure was about 30 nM; with B25, 4 ± 1 nM. Consider B26, for which the dissociation constant (Kd) worked out at 12.6 ± 1.4 nM. Compared with the last molecule, the Kd is about 3.1-fold higher. B27 returned a Kd of 18 ± 5 nM.
